According to doi:10.1101/751974 (bioRxiv, 2019):

How the values were obtained:
[1] = target: recombinant MCM8-9 complex, purified (human, UniProt Q9NXL9-1;Q9UJA3-1); assay: native gel or EMSA
[2] = target: MBP-MCM8-9 complex, amylose bead-bound (human, UniProt Q9NXL9-1;Q9UJA3-1); assay: pull-down
MBP-MCM8-9 complex, amylose bead-bound, sequence (Q9NXL9 whole entry, chain 1 of 2): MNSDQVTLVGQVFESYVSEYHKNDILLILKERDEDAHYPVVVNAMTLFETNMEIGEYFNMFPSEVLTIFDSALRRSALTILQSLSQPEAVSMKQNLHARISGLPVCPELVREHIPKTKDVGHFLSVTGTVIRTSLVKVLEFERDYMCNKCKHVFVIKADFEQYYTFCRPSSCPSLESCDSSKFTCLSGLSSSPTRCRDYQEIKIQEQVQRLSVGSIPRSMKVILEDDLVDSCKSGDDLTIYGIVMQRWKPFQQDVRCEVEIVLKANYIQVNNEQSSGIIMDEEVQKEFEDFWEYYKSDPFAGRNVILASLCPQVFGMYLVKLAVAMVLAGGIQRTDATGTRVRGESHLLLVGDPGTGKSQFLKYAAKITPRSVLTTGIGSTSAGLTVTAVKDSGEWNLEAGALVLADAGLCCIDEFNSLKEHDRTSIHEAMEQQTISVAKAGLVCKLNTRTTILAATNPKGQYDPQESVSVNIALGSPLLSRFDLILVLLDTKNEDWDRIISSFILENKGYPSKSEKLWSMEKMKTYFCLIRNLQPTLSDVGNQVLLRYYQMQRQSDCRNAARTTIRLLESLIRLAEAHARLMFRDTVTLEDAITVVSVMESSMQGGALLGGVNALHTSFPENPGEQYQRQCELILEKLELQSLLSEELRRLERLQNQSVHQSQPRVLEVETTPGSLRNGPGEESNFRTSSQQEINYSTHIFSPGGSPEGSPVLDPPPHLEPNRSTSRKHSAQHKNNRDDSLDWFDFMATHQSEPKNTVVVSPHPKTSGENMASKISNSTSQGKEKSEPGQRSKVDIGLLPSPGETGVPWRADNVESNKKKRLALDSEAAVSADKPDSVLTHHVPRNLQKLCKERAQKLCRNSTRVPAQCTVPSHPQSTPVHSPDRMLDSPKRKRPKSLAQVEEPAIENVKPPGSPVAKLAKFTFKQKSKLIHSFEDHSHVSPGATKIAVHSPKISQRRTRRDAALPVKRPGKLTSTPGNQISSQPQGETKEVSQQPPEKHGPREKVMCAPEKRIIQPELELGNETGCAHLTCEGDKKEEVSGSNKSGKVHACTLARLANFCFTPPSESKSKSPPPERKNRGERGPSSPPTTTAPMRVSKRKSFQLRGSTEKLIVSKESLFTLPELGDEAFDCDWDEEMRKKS
MBP-MCM8-9 complex, amylose bead-bound, sequence (Q9UJA3 whole entry, chain 2 of 2): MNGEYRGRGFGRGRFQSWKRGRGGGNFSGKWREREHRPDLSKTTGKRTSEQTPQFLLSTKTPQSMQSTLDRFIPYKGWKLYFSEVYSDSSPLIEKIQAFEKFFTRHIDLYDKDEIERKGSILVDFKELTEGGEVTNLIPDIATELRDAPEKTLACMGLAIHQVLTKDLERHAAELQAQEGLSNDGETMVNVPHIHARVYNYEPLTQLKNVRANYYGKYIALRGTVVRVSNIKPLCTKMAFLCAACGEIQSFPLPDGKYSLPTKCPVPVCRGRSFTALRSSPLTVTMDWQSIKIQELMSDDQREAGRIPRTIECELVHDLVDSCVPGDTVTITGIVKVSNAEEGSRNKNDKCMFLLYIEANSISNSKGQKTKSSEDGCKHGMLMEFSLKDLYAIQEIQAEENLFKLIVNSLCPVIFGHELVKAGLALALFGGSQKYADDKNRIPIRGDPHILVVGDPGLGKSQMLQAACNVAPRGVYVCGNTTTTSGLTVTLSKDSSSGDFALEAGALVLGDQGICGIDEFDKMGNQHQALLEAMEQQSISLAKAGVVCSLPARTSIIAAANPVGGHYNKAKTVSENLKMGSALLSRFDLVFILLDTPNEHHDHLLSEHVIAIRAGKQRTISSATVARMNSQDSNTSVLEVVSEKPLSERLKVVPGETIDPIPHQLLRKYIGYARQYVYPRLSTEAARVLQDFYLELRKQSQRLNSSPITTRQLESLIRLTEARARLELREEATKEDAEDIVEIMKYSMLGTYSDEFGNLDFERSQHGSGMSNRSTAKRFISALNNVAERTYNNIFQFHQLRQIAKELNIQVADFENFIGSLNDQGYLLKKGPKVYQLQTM

recombinant MCM8-9 complex, purified, sequence (Q9NXL9 whole entry, chain 1 of 2): as the sequence (Q9NXL9 whole entry, chain 1 of 2) above
recombinant MCM8-9 complex, purified, sequence (Q9UJA3 whole entry, chain 2 of 2): as the sequence (Q9UJA3 whole entry, chain 2 of 2) above

B1: MCM8IP-FLAG WT (natural protein)
chain: MACSLQKLFAVEEEFEDEDFLSAVEDAENRFTGSLPVNAGRLRPVSSRPQETVQAQSSRLLLLHPTAPSEALGLPDLDLCLPASSTPSADSRPSCIGAAPLRPVSTSSSWIGNQRRVTVTEVLRETARPQSSALHPLLTFESQQQQVGGFEGPEQDEFDKVLASMELEEPGMELECGVSSEAIPILPAQQREGSVLAKKARVVDLSGSCQKGPVPAIHKAGIMSAQDESLDPVIQCRTPRPPLRPGAVGHLPVPTALTVPTQQLHWEVCPQRSPVQALQPLQAARGTIQSSPQNRFPCQPFQSPSSWLSGKAHLPRPRTPNSSCSTPSRTSSGLFPRIPLQPQAPVSSIGSPVGTPKGPQGALQTPIVTNHLVQLVTAASRTPQQPTHPSTRAKTRRFPGPAGILPHQQSGRSLEDIMVSAPQTPTHGALAKFQTEIVASSQASVEEDFGRGPWLTMKSTLGLDERDPSCFLCTYSIVMVLRKAALKQLPRNKVPNMAVMIKSLTRSTMDASVVFKDPTGEMQGTVHRLLLETCQNELKPGSVLLLKQIGVFSPSLRNHYLNVTPNNLVHIYSPDSGDGSFLKPSQPFPKDSGSFQHDVAAKPEEGFRTAQNLEAEASPEEELPEADDLDGLLSELPEDFFCGTSS
binding result [1]: binds
binding result [2]: binds
